Assay results: US11618913B2, “Method for preparing xyloglucan-oligosaccharides” (TECHNISCHE UNIVERSITÄT MÜNCHEN, priority 2017, dated 2023)
“Also recorded” adds a separate entry of the source. Each block holds one molecule with its values, some of them ahead of it.

Assays:
Format in all cases: biochemical
[1] = Hydrolysis of 20% (wt/vol) TKP/dTKP, XGOS release by HPAEC-PAD; settings: 20% (wt/vol) dTKP/TKP, 60° C.
Experimental: For XGOS release 20% (wt/vol) 8 g of TKP or dTKP was dissolved in 40 ml demineralized water at 60° C. The enzyme was added at the desired concentrations, 3%, 0.65%, 0.05%, 0.03% or 0.006% (wt/wt TKP) referred to the substrate load. Incubation of the reaction mixture was carried out on a rotary shaker at 125 rpm and 60° C. The hydrolysis process was monitored by taking samples at different time points. The samples were centrifuged and the supernatant boiled for 5 min at 95° C. to denature residual proteins. For analysis, samples of the supernatant were withdrawn, tenfold diluted with double deionized water and measured by HPAEC-PAD.
For the analysis by HPAEC-PAD an ICS 3000 Dionex chromatography system from Thermo Fisher Scientific (Waltham, USA) equipped with a CarboPac™ PA1 column (4×250 mm) and a PA1-precolumn (4×50 mm) was used. The system was set up using PEEK tubing (0.25 mm i.d.), a GM-4 gradient mixer (2 mm), an ED amperometry cell with 0.25 microL channel volume, a pH-Ag/AgCl reference electrode, 0.002″ gasket and disposable gold electrodes. Runs were performed at a column temperature of 30° C. with an injection volume of 25 microL and a flow rate of 1 mL/min. […]
Quantification was performed using a XGOS standard mixture from Megazyme with 0.4 g/L, 0.2 g/L, 0.1 g/L, and 0.05 g/L.

[2] = Specific enzyme activity, reducing sugars by DNSA assay; settings: dockerin domain deleted
Experimental: Enzyme activity: the release of micromol reducing sugars from arabinoxylan per mg of enzyme was determined with the DNSA assay.
Specific enzyme activity was determined by using a model substrate such as barley-beta-glucan (Megazyme). Endoglucanase activity is defined as the generation of reducing sugars from the model substrate. One unit of enzyme activity is defined as the amount of reducing sugars in micromol generated per mg of enzyme in one minute at 60° C. To define the enzyme profile and temperature and pH optimum the endoglucanases (50 ng/reaction) were incubated for 30 minutes at a temperature range from 50 to 80° C. in presence of 1% (wt/vol) barley-beta-glucan solved in citrate buffer with varying pH (range 4.0-8.0) (solution A: 0.2 M citric acid, 0.1 M NaCl; solution B: 0.4 M Na2HPO4, 0.1 M NaCl). Reducing sugars were measured by 3,5-dinitrosalicylic acid (DNSA) method: 50 microL sample were mixed with 75 microL DNSA-solution (10 g/L DNSA, 200 g/L K^+-Na^+-Tartrate, 10 g/L NaOH, 0.5 g/L Na2SO4, 2 g/L Phenol) in microtiter plates, incubated for 5 minutes at 95° C., cooled on ice and the absorption determined at 540 nm. For calibration, glucose solutions between 0 and 2 mg/mL were used.

[3] = Ki determination (end product inhibition) on Azo-Xyloglucan in presence of xyloglucan oligosaccharides; settings: inhibition by xyloglucan oligosaccharides; non-competitive inhibition model; substrate 1-20 g/l
Experimental: To evaluate the suitability of SEQ ID NOs 1-4 for TKP hydrolysis, the Ki value of SEQ ID NO 3 was determined. Enzymatic activity was measured on Azo-Xyloglucan (Megazyme) according to the manufacturer's instruction. Substrate concentrations of 1-20 g/I were chosen and enzymatic activity was measured in the presence of increasing concentrations of xyloglucan oligosaccharides. Mode of Inhibition was assessed using a Lineweaver-Burke plot.

B1: SEQ ID NO 2: wildtype glycoside hydrolase family 5 endoglucanase from Herbivorax saccincola DSM101079 (protein, listed as Herbivorax saccincola)
chain: STAYTGMRDITSLELVNEMRIGWNLGNTLDAIGGETNWGNPKTTKEMIDKVKEMGFNTVRFPVTWGGHVGPAPDYKIDEGWLNRVEEVVNYALSNDMYAIINLHHENSWLVPTYAQEKRSTEQLVKIWEQVATRFKDYGDYLIFETMNEPRVENSPYEWSGGTPENRHVINNFNLAAVNTIRSTGGNNAKRHIMIPAHAASAIDIALNDLVIPNNDDRIIISVHNYSPYFFAMDVNGTASWGSDYDKASLAAELEALYNRFIKNGRAVVIGEFGSINKNNLSDRIRHAEFFAKEARKRGITVIWWDNGYNEGGKAESYALLDRRNLTWYHPEIAEALVRGAGGVPEPTPTPTPEPTPSPGEDILYGDLNGDGIINSIDYNLLNRYILEVIDDLPVENYSKVADLNGDGVINSNDAVLLGRFILEIVDKFPVDK
- hydrolysis of TKP to DP7-DP9 after 24 h ([1]; 0.03% (wt/wt) enzyme): Complete hydrolysis; also recorded: completely

B2: SEQ ID NO 4: endoglucanase obtained from SEQ ID NO: 2 by deleting the dockerin domain (protein)
chain: STAYTGMRDITSLELVNEMRIGWNLGNTLDAIGGETNWGNPKTTKEMIDKVKEMGFNTVRFPVTWGGHVGPAPDYKIDEGWLNRVEEVVNYALSNDMYAIINLHHENSWLVPTYAQEKRSTEQLVKIWEQVATRFKDYGDYLIFETMNEPRVENSPYEWSGGTPENRHVINNFNLAAVNTIRSTGGNNAKRHIMIPAHAASAIDIALNDLVIPNNDDRIIISVHNYSPYFFAMDVNGTASWGSDYDKASLAAELEALYNRFIKNGRAVVIGEFGSINKNNLSDRIRHAEFFAKEARKRGITVIWWDNGYNEGGKAESYALLDRRNLTWYHPEIAEALVRGAGGVPEPTPTPTPEPTPSPG
- enzyme activity increase in comparison to wildtype SEQ ID NO 2 ([2]; SEQ ID NO 2 activity set to 100%): 7 fold

- Ki [3]: 16.8 mM
B3: SEQ ID NO 3: endoglucanase obtained from SEQ ID NO: 1 by deleting the dockerin domain (protein)
chain: AKITENYQFDSRIRLNSIGFIPNHSKKATIAANCSTFYVVKEDGTIVYTGTATSMFDNDTKETVYIADFSSVNEEGTYYLAVPGVGKSVNFKIAMNVYEDAFKTAMLGMYLLRCGTSVSATYNGIHYSHGPCHTNDAYLDYINGQHTKKDSTKGWHDAGDYNKYVVNAGITVGSMFLAWEHFKDQLEPVALEIPEKNNSIPDFLDELKYEIDWILTMQYPDGSGRVAHKVSTRNFGGFIMPENEHDERFFVPWSSAATADFVAMTAMAARIFRPYDPQYAEKCINAAKVSYEFLKNNPANVFANQSGFSTGEYATVSDADDRLWAAAEMWETLGDEEYLRDFENRAAQFSKKIEADFDWDNVANLGMFTYLLSERPGKNPALVQSIKDSLLSTADSIVRTSQNHGYGRTLGTTYYWGCNGTVVRQTMILQVANKISPNNDYVNAALDAISHVFGRNYYNRSYVTGLGINPPMNPHDRRSGADGIWEPWPGYLVGGGWPGPKDWVDIQDSYQTNEIAINWNAALIYALAGFVNYN
modifications: Recombinat polypeptide
- enzyme activity increase in comparison to SEQ ID NO 1 ([2]; SEQ ID NO 1 activity set to 100%): 4 fold
- degree of hydrolysis after 24 h ([1]; 0.006% (wt/wt) enzyme): over 80%
